Data: paper PMC2715239
Values joined by “and” are separate entries in the source; they are usually repeats but may differ in a detail not shown here. Equal entries are not always repeated.

Tests used:
Assay in all cases: SEC-MALS
[1] = target: BcMCM C200 truncation (Bacillus cereus)
[2] = target: BcMCM N399 truncation (Bacillus cereus)
[3] = target: full-length Bacillus cereus MCM (BcMCM) (Bacillus cereus)

In the case of “BcMCM C200 truncation (domain or fragment)”, the stoichiometry N [1] was 2 and 3 and 4.

In the case of “BcMCM N399 truncation (domain or fragment)”, the stoichiometry N [2] was 2 and 4.

For “full-length Bacillus cereus MCM (BcMCM) (enzyme)”, the stoichiometry N [3] was 2.
